Test results published in the supplement of paper PMC11908140.

B1: library; numbered along this chain (parent)
chain: MRKPRAAVGSGHRKQAASQEGRQKHAKNNSQAKPSACDGLARQPEEVVLQASVSSYHLFRDVAEVTAFRGSLLSWYDQEKRDLPWRRRAEDEMDLDRRAYAVWVSEVMLQQTQVATVINYYTGWMQKWPTLQDLASASLEEVNQLWAGLGYYSRGRRLQEGARKVVEELGGHMPRTAETLQQLLPGVGRYTAGAIASIAFGQATGVVDGNVARVLCRVRAIGADPSSTLVSQQLWGLAQQLVDPARPGDFNQAAMELGATVCTPQRPLCSQCPVESLCRARQRVEQEQLLASGSLSGSPDVEECAPNTGQCHLCLPPSEPWDQTLGVVNFPRKASRKPPREESSATCVLEQPGALGAQILLVQRPNSGLLAGLWEFPSVTWEPSEQLQRKALLQELQRWAGPLPATHLRHLGEVVHTFSHIKLTYQVYGLALEGQTPVTTVPPGARWLTQEEFHTAAVSTAMKKVFRVYQGQQPGTCMGSKRSQVSSPCSRKKPRMGQQVLDNFFRSHISTDAHSLNSAAQ

Variants of: B1
Experiment: 8OG:A repair function score (normalized; synonymous = 0, nonsense = -1) (normalized log-likelihood score); higher = more repair activity (WT-like)
Conditions: with 8OG:A DNA repair reporter (GFP) in HEK-293 MUTYH KO cells
Method in brief: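 Lentiviral MUTYH cDNA NNN codon-scan libraries in HEK-293 MUTYH knockout cells (10 pg/ml doxycycline) were co-transfected with an 8OG:A GFP repair reporter plus mCherry. At 72 h, viable mCherry+ cells were sorted into GFP+ (repair) and GFP− bins, three replicates per tile, then tile amplicons were sequenced. Per-tile Rosace fitness scores became a normalized repair function score anchored on synonymous and nonsense distributions. Synonymous medians were set to 0 and nonsense to -1; variants under 300 counts per million at the start were removed.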

In order of rising “8OG:A repair function score” value:
1. Y121N  -3.31
2. G150I  -1.78
3. W85N  -1.55
4. Y76R  -1.37
5. W75C  -1.25
6. L396Y  -1.21
7. A199K  -1.14
8. Y121K  -1.13
9. G150E  -1.13
10. A199F  -1.13
11. L131D  -1.1
12. A199E  -1.06
13. V427K  -1.06
14. W124R  -1.05
15. R213P  -1.03
16. I221K  -0.986
17. Y469D  -0.955
18. I221N  -0.933
19. G161Q  -0.911
20. T191E  -0.898
21. G188C  -0.839
22. L237K  -0.816
23. G326F  -0.812
24. V104S  -0.759
25. S419L  -0.749
26. Q181P  -0.726
27. L423P  -0.683
28. Q252A  -0.658
29. L109H  -0.619
30. R389Q  -0.613
31. A135I  -0.611
32. G222N  -0.593
33. A280M  -0.582
34. A345D  -0.542
35. V242A  -0.526
36. P129Y  -0.513
37. L411K  -0.505
38. V230L  -0.499
39. L411Q  -0.494
40. F466Q  -0.488
41. A457C  -0.467
42. C314M  -0.46
43. W447Y  -0.455
44. L72V  -0.446
45. D96M  -0.441
46. A457D  -0.44
47. S54W  -0.423
48. L370Q  -0.398
49. Y190G  -0.381
50. F418N  -0.355
51. R279V  -0.344
52. L149S  -0.335
53. S419Q  -0.333
54. V414Q  -0.321
55. A194M  -0.32
56. L403W  -0.318
57. P402L  -0.318
58. V301P  -0.31
59. G368A  -0.292
60. Q358Y  -0.283
61. R281G  -0.264
62. V441C  -0.261
63. F250W  -0.258
64. T455K  -0.247
65. A135C  -0.244
66. A345G  -0.243
67. K3M  -0.238
68. N119M  -0.216
69. K127Q  -0.208
70. V65P  -0.196
71. L158M  -0.194
72. Q239S  -0.175
73. R340Q  -0.171
74. G412D  -0.162
75. E382C  -0.16
76. A162T  -0.155
77. P365F  -0.154
78. K464E  -0.152
79. L432T  -0.151
80. R156A  -0.122
81. D300Y  -0.121
82. P316V  -0.121
83. A67M  -0.118
84. R156V  -0.117
85. V47E  -0.116
86. Y469S  -0.115
87. V261C  -0.11
88. T440V  -0.0931
89. H416A  -0.0865
90. L423F  -0.0863
91. A67W  -0.0846
92. S344E  -0.0813
93. D82K  -0.079
94. L73C  -0.0699
95. Q286G  -0.0661
96. D77K  -0.0637
97. V166S  -0.0616
98. H508K  -0.0603
99. S344I  -0.0592
100. T228C  -0.0551
101. E167M  -0.0528
102. S136Q  -0.0528
103. T130R  -0.049
104. Q282V  -0.0489
105. Y56G  -0.0482
106. Y56K  -0.0455
107. E350C  -0.0435
108. R87L  -0.0416
109. H172C  -0.0393
110. V485Y  -0.0379
111. Q484I  -0.0366
112. Q132E  -0.0366
113. Q323M  -0.0348
114. S490E  -0.0309
115. S480F  -0.0271
116. T476P  -0.0234
117. T66G  -0.0192
118. S54R  -0.0174
119. S52I  -0.0155
120. S507C  -0.0153
121. G170R  -0.0153
122. G475V  -0.0131
123. R495F  -0.0118
124. S294M  -0.0115
125. S52D  -0.0111
126. L131T  -0.0104
127. H508V  -0.0097
128. P299Q  -0.00604
129. G444T  -0.00488
130. H508A  -0.00475
131. S490Y  -0.00381
132. V468L  -0.00361
133. E79G  -0.00351
134. D91S  -0.00182
135. S296Q  -0.00136
136. M496P  -3.86e-05
137. A36E  0.00159
138. V485T  0.00314
139. A519K  0.0032
140. R60N  0.00565
141. G356Q  0.00571
142. A89S  0.00694
143. V500Q  0.00719
144. Q499I  0.0124
145. S367V  0.0128
146. Q473N  0.0155
147. P488H  0.0202
148. L430F  0.0205
149. A334N  0.0217
150. Q499H  0.0243
151. P443S  0.0247
152. S298I  0.0307
153. E287M  0.0384
154. Q394A  0.04
155. V48R  0.0418
156. V117C  0.0468
157. E46Q  0.0688
158. Q435Y  0.0772
159. R42V  0.0781
160. T417S  0.0785
161. L145H  0.0825
162. K164F  0.104
163. K422Q  0.195
164. L40D  0.21
165. G434K  0.22
166. T406I  0.313
167. K390H  0.403
